Source: publication PMC5581195, “The activation of OsEIL1 on YUC8 transcription and auxin biosynthesis is required for ethylene-inhibited root elongation in rice early seedling development”

Molecular target: T1, GST-EIL1-N (OsEIL1 N-terminal region) (Oryza sativa (rice), UniProt Q10M41 1-350)
T1 sequence: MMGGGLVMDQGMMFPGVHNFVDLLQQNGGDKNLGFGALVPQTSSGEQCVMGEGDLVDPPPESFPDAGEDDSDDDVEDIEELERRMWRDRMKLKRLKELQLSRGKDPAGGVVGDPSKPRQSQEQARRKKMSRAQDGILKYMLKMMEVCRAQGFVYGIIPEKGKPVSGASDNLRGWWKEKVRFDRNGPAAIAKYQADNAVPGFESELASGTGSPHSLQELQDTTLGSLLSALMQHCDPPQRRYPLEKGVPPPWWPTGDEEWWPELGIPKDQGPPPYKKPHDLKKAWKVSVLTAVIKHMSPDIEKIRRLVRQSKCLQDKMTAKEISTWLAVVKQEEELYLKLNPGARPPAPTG
Experiment: EMSA; specificity shown by excess unlabeled probe competition; LightShift Chemiluminescent EMSA kit, manufacturer's protocol; 20 min at room temperature; 5% native polyacrylamide gel; buffer, salt and pH not stated
Details: protein: recombinant; tags: N-terminal GST (pGEX-6p-1); label: biotin 3' end; blunt

B1: YUC8/REIN7 promoter EBS probe (P1 fragment region) (dsDNA)
DNA 1: CCAAAATTTTTAATGTAAAATTTTAAGTACATTTTTTTCATGTACTAGCTACCTCC
DNA 2: GGAGGTAGCTAGTACATGAAAAAAATGTACTTAAAATTTTACATTAAAAATTTTGG
Q: Does B1 bind?
A: binds
